Source: patent US20150238573A1, “NUTRITIONAL FOOD AND FEED, COMPOSITION, PROCESSING AND METHOD OF USE” (Nutrinia Ltd., priority 2004, published 2015)

Columns and labels:
[1] = Stability in liquid infant formula over time (Elisa kit); type: physicochemical
From the text: The InsuMeal™ is intended to be consumed immediately after solubilization in the infant formula. […] Furthermore, in order to evaluate the final product homogeneity, at each time interval, sampling was taken at the upper, middle and lower layers of the sampled RTF bottle, as well as after formula liquid stirring.

[2] = Influence on vitamin C in the preterm RTF formula; type: physicochemical; settings: 0, 6 and 12 hours from insulin supplementation
[3] = Clinical trials of oral insulin in preterm infants; type: in vivo, human
From the text: Clinical trials were done involving supplementation of preterm infant orally-fed with Insulin.

## Insulin
[1]; 0 hour from insulin addition, 100 μU in 60 ml preterm RTF formula
  Insulin concentration: 95.43 μU
[1]; 3 hour from insulin addition
  Insulin concentration: 105.47 μU
[1]; 6 hour from insulin addition
  Insulin concentration: 111.59 μU
[1]; 9 hour from insulin addition
  Insulin concentration: 93.34 μU
[1]; 12 hour from insulin addition
  Insulin concentration: 99.55 μU
[1]; 15 hour from insulin addition
  Insulin concentration: 105.38 μU
[1]; 18 hour from insulin addition
  Insulin concentration: 96.74 μU
[1]; 21 hour from insulin addition
  Insulin concentration: 93.78 μU
[1]; 24 hour from insulin addition
  Insulin concentration: 104.5 μU
[1]; liquid infant formula
  time highly stable after addition to liquid infant formula: at least 24 hr
[2]
  vitamin C concentration in formula after insulin supplementation: No significant differences
[3]; 4 Units per Kg. per day oral for 28 days, control 20 days
  time to full enteral feeding: ≤ 11 days
[3]; trial group, control 6.5
  Lactase activity: 13.3
[3]; trial group, control 54
  Gastric residuals: 22
